Literature values, collected in US7037697B2, “Isozyme of autoclavable superoxide dismutase (SOD), a process for the identification and extraction of the SOD and use of the said SOD in cosmetic, food, and pharmaceutical compositions” (Council of Scientific & Industrial Research, priority 2000, dated 2006).

B1: yeast: Cu/Zn-SOD from yeast (protein, UniProt P00445 2-154, looked up)
Superoxide dismutase [Cu-Zn]: VQAVAVLKGDAGVSGVVKFEQASESEPTTVSYEIAGNSPNAERGFHIHEFGDATNGCVSAGPHFNPFKKTHGAPTDEVRHVGDMGNVKTDENGVAKGSFKDSLIKLIGPTSVVGRSVVIHAGQDDLGKGDTEESLKTGNAGPRPACGVIGLTN

Details: Cu/Zn-SOD, Bonaccorsi di Patti et al. 1994

| Molecule | conformational melting temperatures |
| --- | --- |
| ox: Cu/Zn-SOD from ox | 88.05 °C |
| B1 | 73.1 °C |
